The supplement of paper PMC9170038

System: MS2 coat protein
Assay: apparent KD of MS2 coat protein; higher = weaker reporter binding
Conditions: Eterna round: R107; input ligand: theophylline 20 uM
In short: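 Designed RNA switches were transcribed on-chip from Illumina sequencing clusters. SNAP-549-labelled MS2 coat protein was titrated onto them in twofold steps from 0.7 or 1.5 nM to 3 µM in 100 mM Tris-HCl pH 7.5, 80 mM KCl, 4 mM MgCl2, either without or with constant ligand. Apparent KD reflects the per-design median of normalised cluster binding-curve fits.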

Row | Sequence | apparent KD of MS2 coat protein
1 | AUUAAAGUUUAUAAGGAAAUUGAAACAGAAGGAGCGUGAGUAAUCACAGGUAGGUCGCUGGUAGUACAUGAGGAUCACCCAUGUU [JR_Nu_SSArginiA_Sub020] | 30.6 nM
2 | AUAACUGUAAUAAACCGCAGGCUAGUGGAAGGAGCGCGGAAUAACGCAGGUAGGUCGCCACAAACAUGAGGAUCACCCAUGUGGC [SSAA NP+V+V2 #6] | 21.6 nM
3 | ACUGGAGGUGGAAGGAGCGGGAGACAUGAGCAUCACAUGAGGAUCACCCAUGUAGGAUCAUCCCAGGUAGGUCGCCAUGUCGAAA [rtfemullin] | 292 nM
4 | GGGAGGGAGGCGGCCGCCACUGAUUUUCAUAUAUAUAUAACAUGAGGAUCACCCAUGUGGAUAUACAGGACCGGGCCUUUUUUUU [aaaH] | 30.1 nM
5 | GACAAUAAUUCAACAAUCAAAAUAGUGGGACGAGGACCGGUACGGCCGCCACUCGCUGAAGCACAUGAGGAUCACCCAUGUCUAA [theeternabot_exclusion_MS2_Trp_A_47] | 19.8 nM
6 | UCGUAGGUAGGAAGGAGCGCAUACUUCACAUGAGGAUCACCCAUGUCGAGACGUGAGUCAGUGCAGGUAGGUCGCCUAGUUAUGA [Same State - Arginine B (Freestyle 24)] | 36.2 nM
7 | AAAAGAGGUGGAAGGAGCGGGAGACAUGAGGAUCACCCAUGUGAUAUGACAAGAGGAUCAGCCCAGGUAGGUCGCCAUGUCGAAA [pbbbmullin] | 53.1 nM
8 | UGACAUUGCUCAGAUACCAGACGUGAGGAUCACCCACGUGCCAACAAGUACAUAAUAAAUGUCCCUUGGCAGCUGAGCAAUGUCU [TheoBX 17 #MS2Left #Theo2 #AlternativeMS2] | 15.2 nM
9 | CGAUACAAAUAAAGCGUUCGUCCGCCAGAUACCAGAUUCAUUUCCAUCCCUUGGCAGCUGUCGACAUGAGGAUCACCCAUGUUUG [theeternabot_exclusion_MS2_Theo_A_41] | 21.7 nM
10 | GGUCUCUGGAGCGAUACCAGCUUGAUCGUACUAGCCAGGUACAUGAGGAUCACCCAUGUAAGCCCUUGGCAGCGCUCCAGAGACC [#1 Exclusion - Theophylline B Attempt #9 (HarryS)] | 14.6 nM
11 | AGACAUGAGGAUCACCCAUGUAGCAUGGAUACCAGAUCCAGAUUUAUCCCUUGGCAGCUGUGGUACAGUGAUGGAUUGCUCCUAG [Exclusion - Theophylline A (Freestyle 8)] | 93.6 nM
12 | GUACAUGAGGAUCACCCAUGUAUAGUUGAAGGAGCGACCAGAGGGUCAGGUAGGUCGCAGCACAUGGUGAAAACCCGUGUAUGCC [#1 Exclusion - Arginine A Attempt #21 (Inspired by Pi)] | 61.7 nM
13 | GAGGAAACUCACAUGAGGAUCACCCAUGUACGAGGACCGGUACGGCCGCCACUCGAAACCAUGGGCGGUAGUACAUGGAAACAUG [Design 2 MOD] | 65.8 nM
14 | UGUCGAAACUGAAGGAGCGAGAUGACAAACAUGAGGAUCACCCAUGUUAUGGGUUGUUAAUCUCAGGUAGGUCGCAGUGACAAAA [Same State Arginine B GF 16] | 86.8 nM
15 | UUAACGAGCUGAAGGAGCGCUCUUCAUCAACAUGAGGAUCACCCAUGUACACAUAAUAGGGAGCAGGUAGGUCGCAGCGGGAUGG [#24 Same State - Arginine B] | 24.8 nM
16 | GGAUAGGACACGGCCGCCACUAUCUAGGAUACUAGCAACAUUUGGGUACUUGAGGAUCACCCAAGUAGGACCGGGUGUCCUAUCG | 226 nM
17 | CUCCCUUCGGCGGCCGCCACUAACAGUUUAAUGGACUUUCGGGUCCACAUGAGGAUCACCCAUGUUAGGACCGGGCCCUUGCUCU [theeternabot_exclusion_MS2_Trp_B_39] | 17.5 nM
18 | AAGUGGCACGGAAGGAGCGAGUUUACCUAAAUAACAUGAGGAUCACCCAUGUAUAAUGGGACUCAGGUAGGUCGCCGUUGUCACU [Same State Arginine B GF 23] | 43.1 nM
19 | ACACGAGGAUCACCCGUGUCAUGUGGUGAUACCAGUUUACAUGAGAACCCUUGGCAGCAUAACAACAUGAGGAUCACCCAUGUCA [Same State - Theophylline A #1] | 40.4 nM

Same assay, conditions: Eterna round: R107; input ligand: theophylline 2 mM

Row | Sequence | apparent KD of MS2 coat protein
20 | AGCACUGUGACGGCCGCCACUACAUAAUAGGGUGGUCAGGUUCAUAUACAUGAGGAUCACCCAUGUAGGACCGGGUCUCAGUGCA [Omei Trp Exc B A v6] | 12.2 nM
21 | UCGUAGGUAGGAAGGAGCGCAUACUUCACAUGAGGAUCACCCAUGUCGAGACGUGAGUCAGUGCAGGUAGGUCGCCUAGCUAUGA [Same State - Arginine B (Freestyle 25)] | 28.3 nM
22 | AGCGAUUUCGGAAGGAGCGGUACAUGAGGAUCACCCAUGUAUUCAAUCGUGAUCGGCGCGUGCCAGGUAGGUCGCCGAAGGCGUC [Veatat] | 10.9 nM
23 | UGUAUGUGAUCUGAUACCAGUCCAACUGGUAAAAUCUGAGGAUCACCCAGGUAAAAUUGGGACCCUUGGCAGCAGAUCGCAUACU | 544 nM
24 | GGUACAUGAGGAUCACCCAUGUGUCAUGAUACCAGACAUGAAAAUGUCCCUUGGCAGCAUGCCUGAUGGCCGCGUUUAGCGGCCG [Liskovec] | 20.7 nM
25 | ACAUGAGGAUCACCCAUGUCAUGAGGUUCACGAGGACCGGUACGGCCGCCACUCGACAUGAGGGUCACCCGUGAACGGAACACCC [kpmullin] | 17.7 nM
26 | UAAACUACACAUGAGGAUCACCCAUGUGGCCGAGGACCGGUACGGCCGCCACUCGUGUGUUAAUAAAAGAACCGCAAAGUUCUGU [Ticerear] | 452 nM
27 | UGUACCAUGUCGGCCGCCACUCAUGAUAAACCUGAGGAUCACCCUGGUAGCGUCAAAGACGCUAUGAGGACCGGGACAUGGUACU [TryBS Zipper 2] | 33 nM
28 | GGAUAGGACAGAAGGAGCGACAUGAGGAUCACCCAUGUCUACUACGUCGAAAGACGCUCAUGUCAGGUAGGUCGCUGUCCUAUCG [#28 Exclusion - Arginine B] | 458 nM
29 | AACAUACAGUUUUAGGUGGAUAUAAGGCGGCGAGGACCGGUACGGCCGCCACUCGCGUACAUGAGGAUCACCCAUGUCUGAAGCU [Same State - Tryptophan A (Freestyle 7)] | 86.9 nM
30 | CACGCGGUGUCGGCCGCCACUGACGCCCGUGGGUCUCCUGACAUGAGGAUCACCCAUGUACAGCGCAGGACCGGGACACCAACAA [Are] | 64.2 nM
31 | AUGCAGAACACGGCCGCCACUCAUUGUAGACAUGAGGAUCACCCAUGUAAUAGGGAUAUUUUAUUGAGGACCGGGUGUAAUGCAA [JR_SSTryptoB_Sub013] | 59.5 nM
32 | CGAGUGAGUUCAAUCGAAUAACGGUUUUCGCGAGGACCGGUACGGCCGCCACUCGUGUGAUAUCACACAUGAGGAUCACCCAUGU [3'end-1] | 63.4 nM
33 | AUUAAAGUUUAUAAGGAAAUUGAAACAGAAGGAGCGUGAGUAAUCACAGGUAGGUCGCUGGUAGUACAUGAGGAUCACCCAUGUU [JR_Nu_SSArginiA_Sub020] | 24.2 nM
34 | AUAACUGUAAUAAACCGCAGGCUAGUGGAAGGAGCGCGGAAUAACGCAGGUAGGUCGCCACAAACAUGAGGAUCACCCAUGUGGC [SSAA NP+V+V2 #6] | 20.7 nM
35 | ACUGGAGGUGGAAGGAGCGGGAGACAUGAGCAUCACAUGAGGAUCACCCAUGUAGGAUCAUCCCAGGUAGGUCGCCAUGUCGAAA [rtfemullin] | 431 nM
36 | GGGAGGGAGGCGGCCGCCACUGAUUUUCAUAUAUAUAUAACAUGAGGAUCACCCAUGUGGAUAUACAGGACCGGGCCUUUUUUUU [aaaH] | 19.1 nM
37 | GACAAUAAUUCAACAAUCAAAAUAGUGGGACGAGGACCGGUACGGCCGCCACUCGCUGAAGCACAUGAGGAUCACCCAUGUCUAA [theeternabot_exclusion_MS2_Trp_A_47] | 18.7 nM
38 | UCGUAGGUAGGAAGGAGCGCAUACUUCACAUGAGGAUCACCCAUGUCGAGACGUGAGUCAGUGCAGGUAGGUCGCCUAGUUAUGA [Same State - Arginine B (Freestyle 24)] | 40.2 nM
39 | AAAAGAGGUGGAAGGAGCGGGAGACAUGAGGAUCACCCAUGUGAUAUGACAAGAGGAUCAGCCCAGGUAGGUCGCCAUGUCGAAA [pbbbmullin] | 103 nM
